Experimental data as given in the supplement of paper PMC10724198.
± gives the standard deviation of the averaged measurements.

Assays:
Saccharomyces cerevisiae [1] = assay: protein stability index of tFT-peptide fusion (C-terminal peptide) (PSI (0-1 scale)); higher = more stable (slower turnover)
Method: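 MPS profiling in S. cerevisiae of the tFT-X12 degron library: putative degron peptides plus stable controls, 12 aa, fused to the C-terminus of a sfGFP-mCherry timer. Cells are FACS-sorted into 8 mCherry/sfGFP bins and deep-sequenced. PSI runs from 0 (unstable) to 1 (stable). Backgrounds are wild type, das1Δ and doa10Δ at 30 °C, and wild type, das1Δ, cdc34-1 and cdc53-1 at 37 °C; 2-3 technical replicates each.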

Saccharomyces cerevisiae [2] = assay: as above; details: genetic background: wild type; temperature: 30 C
[3] = genetic background: cdc34-1, temperature: 37 C
[4] = genetic background: cdc53-1, temperature: 37 C
[5] = genetic background: das1 deletion, temperature: 30 C
[6] = genetic background: das1 deletion, temperature: 37 C
[7] = genetic background: doa10 deletion, temperature: 30 C
[8] = genetic background: wild type, temperature: 30 C
[9] = genetic background: wild type, temperature: 37 C
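Further: PSI is a weighted mean of sequencing reads over stability bins, variants kept only with over 10 reads, mCherry proximal and sfGFP distal, peptide attached via GGGS linker.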

Sequence	protein stability index (Saccharomyces cerevisiae [1]; [3])	protein stability index (Saccharomyces cerevisiae [1]; [4])	protein stability index (Saccharomyces cerevisiae [1]; [5])	protein stability index (Saccharomyces cerevisiae [1]; [6])	protein stability index (Saccharomyces cerevisiae [1]; [7])	protein stability index (Saccharomyces cerevisiae [1]; [8])	protein stability index (Saccharomyces cerevisiae [1]; [9])	protein stability index (Saccharomyces cerevisiae [2])
VICSLFRYIMRL	0.414 ± 0.021	0.518 ± 0.0071	0.571 ± 0.013	0.6336 ± 0.0037	0.18 ± 0.019	0.132 ± 0.0062	0.134 ± 0.043	0.199 ± 0.0043
VIFFEFFLSFGE	0.267 ± 0.0089	0.481 ± 0.024	0.281 ± 0.026	0.452 ± 0.026	0.253 ± 0.033	0.32 ± 0.025	0.433 ± 0.0069	0.413 ± 0.0071
VIRIRLSCSVDV	0.326 ± 0.04	0.42 ± 0.047	0.323 ± 0.022	0.411 ± 0.0063	0.313 ± 0.023	0.322 ± 0.021	0.387 ± 0.013	0.367 ± 0.026
VISVFAISTRVD	0.489 ± 0.076	0.4901 ± 0.00049	0.409 ± 0.057	0.5675 ± 0.0051	0.398 ± 0.01	0.414 ± 0.018	0.513 ± 0.066	0.475 ± 0.0055
VIVQSWEIIRLN	0.553 ± 0.055	0.71 ± 0.0093	0.604 ± 0.022	0.7176 ± 0.0053	0.0878 ± 0.0043	0.105 ± 0.026	0.122 ± 0.0068	0.21 ± 0.018
VKVKMKIIIIIK	0.243 ± 0.16	0.258 ± 0.16	0.28 ± 0.044	0.416 ± 0.032	0.3087 ± 0.0006	0.281 ± 0.087	0.432 ± 0.012	0.341 ± 0.0073
VLGFRPLVFLCF	0.235 ± 0.058	0.252 ± 0.029	0.324 ± 0.029	0.4637 ± 0.0028	0.392 ± 0.011	0.304 ± 0.013	0.392 ± 0.0027	0.3239 ± 0.0027
VLRACCDWGFLV	0.53 ± 0.0055	0.696 ± 0.039	0.655 ± 0.017	0.77382 ± 0.00011	0.108 ± 0.0016	0.108 ± 0.03	0.163 ± 0.024	0.161 ± 0.02
VLRLLARRHAMV	0.577 ± 0.036	0.6735 ± 0.002	0.614 ± 0.015	0.689 ± 0.013	0.148 ± 0.013	0.145 ± 0.028	0.251 ± 0.02	0.308 ± 0.017
VMLFYVGSGVVS	0.654 ± 0.053	0.688 ± 0.038	0.54 ± 0.032	0.685 ± 0.016	0.545 ± 0.023	0.556 ± 0.02	0.671 ± 0.014	0.485 ± 0.11
VPGCLGRFLFFL	0.594 ± 0.025	0.6987 ± 0.0066	0.573 ± 0.024	0.722 ± 0.029	0.201 ± 0.032	0.218 ± 0.029	0.413 ± 0.029	0.29 ± 0.024
VRFGYGRIVWDI	0.706 ± 0.035	0.789 ± 0.048	0.6514 ± 0.0055	0.808 ± 0.018	0.472 ± 0.015	0.496 ± 0.032	0.68 ± 0.016	0.5 ± 0.1
VRGLGFRWVWGW	0.747 ± 0.034	0.762 ± 0.011	0.664 ± 0.0089	0.7668 ± 0.0056	0.666 ± 0.011	0.668 ± 0.013	0.772 ± 0.018	0.711 ± 0.038
VRHPVVVVRRVI	0.663 ± 0.017	0.746 ± 0.0067	0.649 ± 0.035	0.70566 ± 0.00012	0.3516 ± 0.0032	0.411 ± 0.025	0.576 ± 0.0099	0.508 ± 0.055
VRRFNVLLYVRG	0.459 ± 0.029	0.4921 ± 0.0032	0.311 ± 0.027	0.528 ± 0.0053	0.324 ± 0.0045	0.321 ± 0.019	0.523 ± 0.012	0.425 ± 0.0063
VRTFAVSCLCVC	0.0897 ± 0.018	0.139 ± 0.034	0.19 ± 0.019	0.23 ± 0.0066	0.126 ± 0.0024	0.133 ± 0.013	0.128 ± 0.0014	0.301 ± 0.0037
VSFFCLICRVYP	0.371 ± 0.0078	0.4463 ± 0.0044	0.317 ± 0.033	0.4808 ± 0.0037	0.298 ± 0.008	0.313 ± 0.012	0.417 ± 0.039	0.434 ± 0.099

Sequence	protein stability index (Saccharomyces cerevisiae [1]; [3])	protein stability index (Saccharomyces cerevisiae [1]; [4])	protein stability index (Saccharomyces cerevisiae [1]; [5])	protein stability index (Saccharomyces cerevisiae [1]; [6])	protein stability index (Saccharomyces cerevisiae [1]; [7])	protein stability index (Saccharomyces cerevisiae [1]; [8])	protein stability index (Saccharomyces cerevisiae [1]; [9])	protein stability index (Saccharomyces cerevisiae [2])
VSIRVVVWVSWG	0.133 ± 0.0081	0.2248 ± 0.00098	0.145 ± 0.022	0.259 ± 0.011	0.121 ± 0.0089	0.143 ± 0.02	0.223 ± 0.013	0.226 ± 0.032
VSLHVFVFLLAS	0.255 ± 0.02	0.347 ± 0.0036	0.249 ± 0.025	0.4219 ± 0.0024	0.189 ± 0.012	0.239 ± 0.027	0.378 ± 0.0044	0.309 ± 0.043
VSLIYKTIKNRV	0.6704 ± 0.0033	0.732 ± 0.0082	0.595 ± 0.03	0.726 ± 0.063	0.396 ± 0.049	0.397 ± 0.015	0.6009 ± 0.001	0.517 ± 0.057
VSLSEVAIIVHG	0.544 ± 0.025	0.611 ± 0.0098	0.418 ± 0.035	0.596 ± 0.014	0.391 ± 0.022	0.426 ± 0.022	0.5739 ± 0.0012	0.517 ± 0.026
VSWWRGVYVVLF	0.503 ± 0.019	0.5319 ± 0.00099	0.388 ± 0.031	0.566 ± 0.0089	0.342 ± 0.013	0.357 ± 0.018	0.526 ± 0.023	0.518 ± 0.039
VTEGMKEVIKQI	0.647 ± 0.014	0.702 ± 0.026	0.629 ± 0.044	0.728 ± 0.013	0.3751 ± 0.00062	0.402 ± 0.038	0.6073 ± 0.0042	0.482 ± 0.0079
VVDIFLFFLFVC	0.171 ± 0.0036	0.192 ± 0.027	0.243 ± 0.013	0.351 ± 0.021	0.186 ± 0.0069	0.145 ± 0.0086	0.216 ± 0.048	0.203 ± 0.015
VVFVFIDLGLCV	0.187 ± 0.0053	0.326 ± 0.035	0.243 ± 0.028	0.423 ± 0.0072	0.188 ± 0.019	0.223 ± 0.018	0.4359 ± 0.0027	0.266 ± 0.007
VVFVRLGWMRAC	0.441 ± 0.034	0.52 ± 0.017	0.43 ± 0.03	0.59 ± 0.018	0.0904 ± 0.01	0.0972 ± 0.021	0.112 ± 0.0058	0.172 ± 0.046
VVGILVLASWDL	0.184 ± 0.011	0.321 ± 0.058	0.264 ± 0.041	0.426 ± 0.019	0.196 ± 0.0056	0.225 ± 0.029	0.373 ± 0.017	0.376 ± 0.045
VVLWTFLLEVSA	0.0259 ± 0.011	0.0344 ± 0.0033	0.0674 ± 0.015	0.0951 ± 0.0053	0.0508 ± 0.019	0.0755 ± 0.033	0.101 ± 0.014	0.134 ± 0.034
VVLWVVCWGCWK	0.237 ± 0.05	0.339 ± 0.021	0.215 ± 0.038	0.432 ± 0.024	0.179 ± 0.015	0.205 ± 0.029	0.421 ± 0.021	0.328 ± 0.027
VVSLAVVGRFLV	0.616 ± 0.061	0.7 ± 0.011	0.586 ± 0.024	0.7 ± 0.031	0.118 ± 0.018	0.147 ± 0.018	0.263 ± 0.03	0.2243 ± 0.0017
VVVFRWTCWLLV	0.0544 ± 0.005	0.144 ± 0.023	0.0835 ± 0.013	0.245 ± 0.0041	0.0257 ± 0.014	0.0385 ± 0.011	0.06333 ± 0.00029	0.0581 ± 0.028
VWSCILPMVYVW	0.111 ± 0.066	0.109 ± 0.0066	0.156 ± 0.022	0.1639 ± 0.00068	0.135 ± 0.016	0.158 ± 0.0067	0.157 ± 0.011	0.203 ± 0.0046
VWWWGAVGWLMV	0.572 ± 0.036	0.602 ± 0.028	0.528 ± 0.026	0.628 ± 0.016	0.392 ± 0.017	0.416 ± 0.018	0.547 ± 0.01	0.454 ± 0.0008
